# Experimental data: publication PMC12543323, “IFIT1 is rapidly evolving and exhibits disparate antiviral activities across 11 mammalian orders”
# Positions count from the first letter of the chain named.
# T1: human IFIT1 (Homo sapiens, UniProt P09914 1-478)
# T1 sequence: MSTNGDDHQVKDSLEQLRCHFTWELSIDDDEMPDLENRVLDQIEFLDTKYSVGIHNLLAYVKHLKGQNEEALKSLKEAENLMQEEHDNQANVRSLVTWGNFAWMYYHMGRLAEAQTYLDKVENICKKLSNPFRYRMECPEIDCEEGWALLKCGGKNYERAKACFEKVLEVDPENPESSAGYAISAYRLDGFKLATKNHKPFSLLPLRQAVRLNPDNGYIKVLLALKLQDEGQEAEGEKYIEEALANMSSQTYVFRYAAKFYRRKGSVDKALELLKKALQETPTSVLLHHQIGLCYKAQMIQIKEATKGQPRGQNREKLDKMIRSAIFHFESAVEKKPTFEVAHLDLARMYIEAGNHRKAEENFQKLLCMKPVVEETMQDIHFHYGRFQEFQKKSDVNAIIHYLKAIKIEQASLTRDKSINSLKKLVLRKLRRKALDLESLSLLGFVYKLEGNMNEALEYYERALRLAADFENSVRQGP
# T2: human IFIT1 R187H (Homo sapiens, UniProt P09914 1-478, R187H)
# T2 sequence: T1 sequence with R187H
# Assays:
# human IFIT1 = target: T1, human IFIT1; assay: EMSA; 50 mM Tris pH 8.0 ([…], room temperature 20 min; […]; conditions: protein: recombinant; tags: N-terminal 6xHis-SUMO (smt3) removed by Ulp1; label: none (SYBR Gold post-stain)
# human IFIT1 R187H = target: T2, human IFIT1 R187H; assay: as above; conditions: protein: recombinant; tags: N-terminal 6xHis-SUMO (smt3) removed by Ulp1; label: none (SYBR Gold post-stain)
binder,measurement,setting,value
"AUAGGCGGCGCAUGAGAGAAGCCCAGACCAAUUACCUACCC (ssRNA, 5' Cap0 (m7GpppA, no 2'-O methylation; at least 95% by LC/MS)) [Cap0 VEEV TC-83 5' UTR RNA (41 nt)]",binding result,human IFIT1,binds
same,binding result,human IFIT1 R187H,no binding
